In publication PMC9243173:

Molecular target: 3HA-3FLAG-CIAO3-C190S/C395S (human) (UniProt Q9H6Q4)
Assay: affinity purification with mass spectrometry; anti-HA beads on lysates of Flp-In 293 cells expressing the 3HA-3FLAG-tagged bait (NUBP2, wildtype or mutant CIAO3); targeted proteomics assay (parallel reaction monitoring) of CIA components and substrates; CIAO3 purifications normalised to CIAO3; wildtype CIAO3 cells also treated with FAC or DFO for 8 h

Sequence of 3HA-3FLAG-CIAO3-C190S/C395S (human) (Q9H6Q4 whole entry C190S/C395S): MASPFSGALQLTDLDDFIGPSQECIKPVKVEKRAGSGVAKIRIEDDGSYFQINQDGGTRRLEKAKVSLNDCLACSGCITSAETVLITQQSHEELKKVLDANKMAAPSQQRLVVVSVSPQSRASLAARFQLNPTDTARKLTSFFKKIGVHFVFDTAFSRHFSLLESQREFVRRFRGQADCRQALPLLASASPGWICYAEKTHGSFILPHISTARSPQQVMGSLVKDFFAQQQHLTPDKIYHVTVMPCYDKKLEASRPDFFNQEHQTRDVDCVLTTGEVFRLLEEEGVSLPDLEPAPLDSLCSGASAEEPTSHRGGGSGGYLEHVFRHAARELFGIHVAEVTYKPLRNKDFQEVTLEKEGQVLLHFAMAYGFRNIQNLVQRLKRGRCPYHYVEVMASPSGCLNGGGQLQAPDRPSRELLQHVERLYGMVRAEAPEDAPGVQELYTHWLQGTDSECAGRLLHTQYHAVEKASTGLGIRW

- fold decrease against wildtype CIAO3: 3 to 4 fold
Substance: The CIA targeting complex
